Key:
[1] = molecular target: T1, HA-tagged PH domain of mSos1 (residues 448-577) (mouse, UniProt Q62245 448-577); assay: GST pull-down from yeast lysates, anti-HA western blot
T1 construct: range 448-577; Expressed in L40 yeast; The species is read from the printed prefix in 'mSos1'; also called SOS1 PH domain; not shown: HA tag
T1 sequence (looked up): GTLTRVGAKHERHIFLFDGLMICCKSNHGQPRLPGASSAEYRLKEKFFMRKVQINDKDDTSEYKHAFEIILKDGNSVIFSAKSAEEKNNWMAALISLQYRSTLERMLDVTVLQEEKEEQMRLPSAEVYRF

[2] = molecular target: T2, HA-tagged PH domain of human RasGAP (residues 464-603) (human, UniProt P20936 464-603); assay: as above
T2 construct: range 464-603; Expressed in L40 yeast; also called Ras-GAP (GAP) PH domain; not shown: HA tag
T2 sequence (looked up): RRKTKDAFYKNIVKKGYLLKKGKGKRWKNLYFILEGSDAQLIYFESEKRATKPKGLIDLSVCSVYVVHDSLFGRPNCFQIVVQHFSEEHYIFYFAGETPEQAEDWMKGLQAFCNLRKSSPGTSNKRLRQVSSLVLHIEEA

[3] = molecular target: T3, HA-tagged PH domain of mouse Ect-2 (residues 495-621) (mouse, UniProt Q07139 670-796); assay: as above
T3 construct: range 670-796; Expressed in L40 yeast; also called ECT-2 PH domain; not shown: HA tag
T3 sequence (looked up): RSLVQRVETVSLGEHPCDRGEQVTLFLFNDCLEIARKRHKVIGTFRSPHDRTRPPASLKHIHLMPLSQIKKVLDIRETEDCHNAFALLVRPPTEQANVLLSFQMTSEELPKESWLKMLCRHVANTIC

[4] = molecular target: T4, HA-tagged IRS-1 PH domain mutant PH^W106A (rat, UniProt P35570 3-133); assay: GST pull-down from COS-1 lysates (500 µg), anti-HA western blot
T4 construct: range 3-133; Expressed transiently in COS-1 cells; The residue limits are not restated for this mutant; not shown: HA tag
T4 sequence (looked up): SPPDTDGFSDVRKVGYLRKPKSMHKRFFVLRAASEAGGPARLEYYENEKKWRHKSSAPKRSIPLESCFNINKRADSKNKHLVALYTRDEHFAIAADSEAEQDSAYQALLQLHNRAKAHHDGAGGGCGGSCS

Measured: binding result

B1: GST-PHIP fusion protein containing PHIP residues 8-209 (PBR) isolated from the yeast clone VP1.32 (other)
chain: VGELTENGLTLEEWLPSAWITDTLPRRCPFVPQMGDEVYYFRQGHEAYVEMARKNKIYSINPKKQPWHKMELREQELMKIVGIKYEVGLPTLCCLKLAFLDPDTGKLTGGSFTMKYHDMPDVIDFLVLRQQFDDAKYRRWNIGDRFRSVIDDAWWFGTIESQEPLQPEYPDSLFQCYNVCWDNGDTEKMSPWDMELIPNNAV
notes: Bacterially expressed and immobilized for pull-downs; also called GST-PHIP (PBR); not shown: glutathione S-transferase encoded by the pGEX-3X vector
no binding: [1] | [2] | [3] | [4]
